Where a chain is given by its changes, count along the chain named. Non-standard residues stand in square brackets, D forms with d. No end group written: not given here.
Assays:
[1] = target: T1, mouse delta opioid receptor (mORD1) (mouse), P32300; experiment: cell-based or functional assay
T1 chain: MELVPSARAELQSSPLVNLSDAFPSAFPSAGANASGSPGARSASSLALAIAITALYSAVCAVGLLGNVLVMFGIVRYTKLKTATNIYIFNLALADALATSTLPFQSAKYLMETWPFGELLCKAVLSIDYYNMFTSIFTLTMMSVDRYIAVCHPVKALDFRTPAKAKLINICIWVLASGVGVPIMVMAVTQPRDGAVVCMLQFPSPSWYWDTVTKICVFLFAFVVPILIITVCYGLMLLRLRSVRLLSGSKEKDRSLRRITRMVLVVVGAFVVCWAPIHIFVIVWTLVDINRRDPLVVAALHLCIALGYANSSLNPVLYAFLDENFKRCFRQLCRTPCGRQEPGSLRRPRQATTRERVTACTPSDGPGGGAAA

[2] = target: T2, D128N mutant mouse delta opioid receptor (mouse), P32300; experiment: cell-based or functional assay
T2 chain: T1 chain with D128N

[3] = target: T3, κ1-78/δ70-372 chimeric opioid receptor (mouse); experiment: competition vs [3H]DPDPE, COS-7 membranes
T3 chain: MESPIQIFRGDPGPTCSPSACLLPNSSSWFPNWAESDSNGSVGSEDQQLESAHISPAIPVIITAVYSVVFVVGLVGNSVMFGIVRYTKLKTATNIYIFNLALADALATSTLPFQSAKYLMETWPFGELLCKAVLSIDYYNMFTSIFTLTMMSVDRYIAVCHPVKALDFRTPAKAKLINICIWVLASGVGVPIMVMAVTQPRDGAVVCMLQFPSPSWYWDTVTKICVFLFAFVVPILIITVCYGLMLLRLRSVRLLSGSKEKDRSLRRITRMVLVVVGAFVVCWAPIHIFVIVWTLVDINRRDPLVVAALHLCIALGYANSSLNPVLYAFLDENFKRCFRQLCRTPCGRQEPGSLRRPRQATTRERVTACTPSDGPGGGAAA

[4] = target: T4, H278N mutant mouse delta opioid receptor (mouse), P32300; experiment: competition vs 3H-naltrindole, COS-7 membranes
T4 chain: T1 chain with H278N

[5] = target: T5, rat µ opioid receptor (rat), P33535; experiment: competition vs [3H]DAMGO, COS-7 membranes
T5 chain: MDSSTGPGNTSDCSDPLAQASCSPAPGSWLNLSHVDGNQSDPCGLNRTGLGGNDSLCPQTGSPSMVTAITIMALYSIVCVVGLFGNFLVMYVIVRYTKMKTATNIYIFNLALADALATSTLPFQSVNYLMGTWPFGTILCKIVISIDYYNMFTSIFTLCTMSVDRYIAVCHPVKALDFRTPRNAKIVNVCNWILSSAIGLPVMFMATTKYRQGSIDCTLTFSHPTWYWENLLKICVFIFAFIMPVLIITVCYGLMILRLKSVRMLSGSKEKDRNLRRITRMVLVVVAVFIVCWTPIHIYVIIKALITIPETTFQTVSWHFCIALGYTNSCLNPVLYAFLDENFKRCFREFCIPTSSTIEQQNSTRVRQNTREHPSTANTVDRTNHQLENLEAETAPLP

[6] = target: T1, mouse delta opioid receptor (mORD1) …; experiment: competition vs [3H]naltrindole, COS-1 membranes
[7] = target: T1, mouse delta opioid receptor (mORD1) …; experiment: competition vs [3H]naltrindole, CHO-DG44 membranes
[8] = target: T5, rat µ opioid receptor (rat), P33535; experiment: saturation binding, COS-7 membranes
[9] = target: cloned human µ opioid receptor (human), P35372; experiment: saturation binding, Scatchard analysis, COS-7 membranes
Chain of cloned human µ opioid receptor (human), P35372 (P35372 whole entry): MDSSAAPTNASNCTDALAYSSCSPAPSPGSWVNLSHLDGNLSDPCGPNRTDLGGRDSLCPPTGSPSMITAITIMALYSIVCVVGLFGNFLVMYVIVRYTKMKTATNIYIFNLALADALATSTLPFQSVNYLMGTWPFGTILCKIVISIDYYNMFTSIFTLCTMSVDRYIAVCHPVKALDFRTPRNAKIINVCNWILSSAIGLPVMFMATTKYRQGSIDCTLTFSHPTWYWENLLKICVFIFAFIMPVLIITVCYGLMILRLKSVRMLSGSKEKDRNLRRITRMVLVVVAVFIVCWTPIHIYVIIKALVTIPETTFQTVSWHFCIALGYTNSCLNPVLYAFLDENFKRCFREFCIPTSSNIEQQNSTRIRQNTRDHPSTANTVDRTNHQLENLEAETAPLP

[10] = target: T1, mouse delta opioid receptor (mORD1) …; experiment: radioligand binding, COS-7 membranes

B1: [D-Ser2, Leu5] enkephalin-Thr6 (DSLET) (peptide)
chain: Y[dS]GFLT
**Q.** Which inhibition of forskolin-stimulated cAMP formation [1] does the source give for B1 here?
**A.** 70%

**Q.** What about the EC50 to inhibit forskolin-stimulated cAMP accumulation [2] of the same binder?
**A.** 30 nM

**Q.** And the IC50 [3]?
**A.** 2 nM

**Q.** What about the Ki [4] of the same binder?
**A.** 0.5 nM

B2: DADL (peptide)
chain: YAGFL
modifications: not checked
**Q.** What does the source list for B2?
**A.** Ki [5]: 16 nM; IC50 [6]: 20 nM; Ki [7]: 0.74 nM

B3: [D-Ala2,MePhe4,Gly-ol5]enkephalin (DAMGO) (peptide)
chain: YAGFG
modifications: not checked
**Q.** Which Ki [5] does the source give for B3 here?
**A.** 2 nM

**Q.** And the Kd [8]?
**A.** 0.57 nM

**Q.** What about the Kd [9] of the same binder?
**A.** 1 nM

B4: [D-Pen2, D-Pen5]enkephalin (DPDPE) (peptide)
chain: YCGFC
modifications: not checked
**Q.** For B4, which average binding (fmol/mg protein) [10] is on record?
**A.** 1990

— patent US20030211537A1
